The record followed here is patent US20210230272A1.

Read-outs that look alike come from different tables or passages of the source. Where only a bound is given, the exact number is not on record here.

The target of assay [1] is human CLDN18.2 (human) (UniProt P56856). In words: flow cytometry, CF633, 1 µg/ml. (A flow cytometer gives signals particle by particle.)
Assay [2] shares this target. As to the kind of experiment: flow cytometry, CF488, 10 µg/ml.
Assay [3] has the same target. In words: cell ELISA, hCLDN18.2+ cells.
Assay [4] shares this target. As to the kind of experiment: cell ELISA, hCLDN18.2+ cells. This is another data set of the same source. For orientation: ELISA stands for enzyme-linked immunosorbent assay.
Assay [5] shares this target. As to the kind of experiment: cell-based or functional assay.
For assay [6] the target is unchanged. As to the kind of experiment: flow cytometry, CF633 labeled antibody 10 µg/ml, hCLDN18.2+ cells.
The target is the same in assay [7]. In words: flow cytometry, CF633, 10 µg/ml.
Assay [8] has the same target. As to the kind of experiment: flow cytometry, CF488 labeled antibody 1 µg/ml, hCLDN18.2+ cells.
Assay [9] shares this target. As to the kind of experiment: KinExA, antibody titrated with hCLDN18.2+ cells.
The next assay concerns the target mice CLDN18.2 (mice) (UniProt P56857). As to the kind of experiment: cell ELISA, mCLDN18.2+ cells.
In assay [10] the target is human CLDN18.2 (human) (UniProt P56856). In words: flow cytometry, CF633 labeled antibody 1 µg/ml, hCLDN18.2+ cells.
The target is the same in assay [11]. In words: flow cytometry, CF488 labeled antibody 10 µg/ml, hCLDN18.2+ cells.
Assay [12] addresses human CLDN18.2 (human), P56856. In words: cell-based or functional assay.

B1: Ref (control anti-human CLDN18.2 antibody) (antibody, INN chains, looked up, V domains shown)
VH: QVQLQQPGAELVRPGASVKLSCKASGYTFTSYWINWVKQRPGQGLEWIGNIYPSDSYTNYNQKFKDKATLTVDKSSSTAYMQLSSPTSEDSAVYYCTRSWRGNSFDYWGQGTTLTVSS
VL: DIVMTQSPSSLTVTAGEKVTMSCKSSQSLLNSGNQKNYLTWYQQKPGQPPKLLIYWASTRESGVPDRFTGSGSGTDFTLTISSVQAEDLAVYYCQNDYSYPFTFGSGTKLEIKR
One may read the EC50 as the concentration giving half of the maximal effect. Low values mean an effect from little substance, high ones a need for much substance. As a reminder, the Kd is the equilibrium constant for the complex coming apart. A high value points to weaker binding. Regarding B1, in the assay with human CLDN18.2 (human) [1], the binding value, ratio to the background was determined as 2.7. The binding value, times higher than the background with human CLDN18.2 (human) [2] came out at 4 times. For the same molecule, in the assay with human CLDN18.2 (human) [3], the concentration giving a half-maximal response (EC50) turned out to be 0.249 nM and the Emax is 1.41. Besides, in the assay with human CLDN18.2 (human) [4], the 50% effective concentration (EC50) stood at 0.345 nM and the Emax was determined as 0.98. Further, in the assay with human CLDN18.2 (human) [5], the ADCC activity, EC50 turned out to be 1.39 µg/mL; the CDC activity, EC50 amounted to 2.31 µg/mL; the inducing the apoptosis of tumor cells at 10 µg/ml (LDH release) was 15.3%; the inducing the apoptosis of tumor cells at 30 µg/ml (LDH release) amounted to 19.6%. In the assay with human CLDN18.2 (human) [5], this molecule had an inhibition rate % of proliferation, 1 µg/ml (CCK-8) of 2.34%; an inhibition rate % of proliferation, 10 µg/ml (CCK-8) of 2.94%; an inhibition rate % of proliferation, 30 µg/ml (CCK-8) of 3.9%. The molecule further came in with a Binding value (FACS fluorescence intensity) in the assay with human CLDN18.2 (human) [6] of 198. The binding value, times of the background with human CLDN18.2 (human) [7] worked out at 8.5 times. In the assay with human CLDN18.2 (human) [8], this molecule had a Binding value (FACS fluorescence intensity) of 1940. In the assay with human CLDN18.2 (human) [9], the Kd came out at 0.144 nM. In the assay with mice CLDN18.2 (mice), the concentration for a half-maximal effect (EC50) worked out at 1.04 nM and the Emax was 1. In the assay with human CLDN18.2 (human) [10], this molecule yielded a Binding value (FACS fluorescence intensity) of 62.5. For the same molecule, in the assay with human CLDN18.2 (human) [11], the Binding value (FACS fluorescence intensity) is 17900.

B2: Ab51 (antibody, IgG1, V domains shown)
VL: DIVMTQSPDSLAVSLGERATINCKSSQSLLNTGNNKNYLAWYQQKPGQPPKLLIYWASTRESGVPDRFSGSGSGTDFTLTISSLQAEDVAVYYCQNDYFYPFTFGQGTKLEIK
VH: QVQLVQSGAEVKKPGSSVKVSCKASGYAFSNYLIEWVRQAPGQGLEWMGLINPGSGGTNYNEKFKGRVTITADESTSTAYMELSSLRSEDTAVYYCARVYYGNTFAYWGQGTLVTVSS
B2 showed a CDC activity, EC50 in assay [12] of 2.12 µg/mL.

B3: Ab34 (antibody, V domains shown)
VH: QVQLVQSGAEVKKPGSSVKVSCKASGYAFSNYLIEWVRQAPGQGLEWMGLINPGSGGTNYNEKFKGKVTITADKSTSTAYMELSSLRSEDTAVYYCARVYYGNTFAYWGQGTLVTVSS
VL: DIVMTQSPDSLAVSLGERATISCKSSQSLLNSGNNKNYLAWYQQKPGQPPKLLIYWASTRESGVPDRFSGSGSGTDFTLTISSLQAEDVAVYYCQNDYFYPFTFGQGTKLEIK
Take B3: in the assay with human CLDN18.2 (human) [3], the half-maximal effective concentration (EC50) amounted to 0.151 nM and the Emax was 1.42.

B4: Ab22 (antibody, V domains shown)
VH: QVQLVQSGAEVKKPGSSVKVSCKASGYAFSNYLIEWVRQAPGQGLEWMGLINPGSGGTNYNEKFKGKVTITADKSTSTAYMELSSLRSEDTAVYYCARVYYGNTFAYWGQGTLVTVSS
VL: DIVMTQSPDSLAVSLGERATINCKSSQSLLTSGNNKNYLAWYQQKPGQPPKLLIYWASTRESGVPDRFSGSGSGTDFTLTISSLQAEDVAVYYCQNDYFYPFTFGQGTKLEIK
Regarding B4, in the assay with human CLDN18.2 (human) [3], the EC50 came out at 1.37 nM and the Emax was 0.827.

B5: Ab21 (antibody, V domains shown)
VH: QVQLVQSGAEVKKPGSSVKVSCKASGYAFSNYLIEWVRQAPGQGLEWMGLINPGSGGTNYNEKFKGKVTITADKSTSTAYMELSSLRSEDTAVYYCARVYYGTSFAYWGQGTLVTVSS
VL: DIVMTQSPDSLAVSLGERATINCKSSQSLLTSGNNKNYLAWYQQKPGQPPKLLIYWASTRESGVPDRFSGSGSGTDFTLTISSLQAEDVAVYYCQNDYFYPFTFGQGTKLEIK
Turning to B5, in the assay with human CLDN18.2 (human) [3], the EC50 is over 16 nM and the Emax is 0.145.

B6: Ab28 (antibody, V domains shown)
VH: QVQLVQSGAEVKKPGSSVKVSCKASGYAFSNYLIEWVRQAPGQGLEWMGLINPGSGGTNYNEKFKGKVTITADKSTSTAYMELSSLRSEDTAVYYCARVYYGNSFAYWGQGTLVTVSS
VL: DIVMTQSPDSLAVSLGERATINCKSSQSLLNTGNNKNYLAWYQQKPGQPPKLLIYWASTRESGVPDRFSGSGSGTDFTLTISSLQAEDVAVYYCQNDYFYPFTFGQGTKLEIK
In the assay with human CLDN18.2 (human) [3], B6 registered a half-maximal effective concentration (EC50) of 0.154 nM and an Emax of 1.56.

B7: Ab51 (antibody, IgG1, V domains shown)
VH: QVQLVQSGAEVKKPGSSVKVSCKASGYAFSNYLIEWVRQAPGQGLEWMGLINPGSGGTNYNEKFKGRVTITADESTSTAYMELSSLRSEDTAVYYCARVYYGNTFAYWGQGTLVTVSS
VL: DIVMTQSPDSLAVSLGERATINCKSSQSLLNTGNNKNYLAWYQQKPGQPPKLLIYWASTRESGVPDRFSGSGSGTDFTLTISSLQAEDVAVYYCQNDYFYPFTFGQGTKLEIK
With B7, in the assay with mice CLDN18.2 (mice), the EC50 worked out at 0.474 nM and the Emax worked out at 1.91.

B8: Ab32 (antibody, V domains shown)
VH: QVQLVQSGAEVKKPGSSVKVSCKASGYAFSNYLIEWVRQAPGQGLEWMGLINPGSGGTNYNEKFKGKVTITADKSTSTAYMELSSLRSEDTAVYYCARVYYGNTFAYWGQGTLVTVSS
VL: DIVMTQSPDSLAVSLGERATINCKSSQSLLNSGNNKNYLAWYQQKPGQPPKLLIYWASTRESGVPDRFSGSGSGTDFTLTISSLQAEDVAVYYCQNDYFYPFTFGQGTKLEIK
As for B8, in the assay with human CLDN18.2 (human) [3], the EC50 turned out to be 0.197 nM and the Emax amounted to 1.41.

B9: Ab30 (antibody, V domains shown)
VH: QVQLVQSGAEVKKPGSSVKVSCKASGYAFSNYLIEWVRQAPGQGLEWMGLINPGSGGTNYNEKFKGKVTITADKSTSTAYMELSSLRSEDTAVYYCARVYYGNTFAYWGQGTLVTVSS
VL: DIVMTQSPDSLAVSLGERATISCKSSQSLLNSGNQKNYLTWYQQKPGQPPKLLIYWASTRESGVPDRFSGSGSGTDFTLTISSLQAEDVAVYYCQNDYFYPFTFGQGTKLEIK
For the molecule B9, in the assay with human CLDN18.2 (human) [3], the EC50 was 11.4 nM and the Emax was determined as 0.67.

B10: Ab23 (antibody, V domains shown)
VH: QVQLVQSGAEVKKPGSSVKVSCKASGYAFSNYLIEWVRQAPGQGLEWMGLINPGSGGTNYNEKFKGKVTITADKSTSTAYMELSSLRSEDTAVYYCARVYYGTSFAYWGQGTLVTVSS
VL: DIVMTQSPDSLAVSLGERATINCKSSQSLLNTGNNKNYLAWYQQKPGQPPKLLIYWASTRESGVPDRFSGSGSGTDFTLTISSLQAEDVAVYYCQNDYFYPFTFGQGTKLEIK
In the assay with human CLDN18.2 (human) [3], B10 displayed an EC50 of over 40 nM and an Emax of 0.147.

B11: CAR1a (CAR with Ab10 scFv) (protein)
chain: DIVMTQSPDSLAVSLGERATISCKSSQSLLNSGNQKNYLTWYQQKPGQPPKLLIYWASTRESGVPDRFSGSGSGTDFTLTISSLQAEDVAVYYCQNDYFYPFTFGQGTKLEIKGGGGSGGGGSGGGGSQVQLVQSGAEVKKPGSSVKVSCKASGYAFSNYLIEWVKQAPGQGLEWIGLINPGSGGTNYNEKFKGKATITADKSTSTAYMELSSLRSEDTAVYYCARVYYGNSFAYWGQGTLVTVSSTTTPAPRPPTPAPTIASQPLSLRPEACRPAAGGAVHTRGLDFACDIYIWAPLAGTCGVLLLSLVITLYCKRGRKKLLYIFKQPFMRPVQTTQEEDGCSCRFPEEEEGGCELRVKFSRSADAPAYKQGQNQLYNELNLGRREEYDVLDKRRGRDPEMGGKPRRKNPQEGLYNELQKDKMAEAYSEIGMKGERRRGKGHDGLYQGLSTATKDTYDALHMQALPPR
Consider B11, for which, in [12], the specific killing rate of target cells, %, CART1a, 1:1 was 19.1%; the specific killing rate of target cells, %, CART1a, 3:1 was 18.3%; the specific killing rate of target cells, %, CART1a, 10:1 was 32.2%; the specific killing rate of target cells, %, CART1a, 20:1 was determined as 34.8%. Besides, in [12], the specific killing rate of target cells, %, CART3a, 1:1 stood at 3.9%; the specific killing rate of target cells, %, CART3a, 3:1 was 3.1%; the specific killing rate of target cells, %, CART3a, 10:1 came to 21.8%; the specific killing rate of target cells, %, CART3a, 20:1 stood at 24.3%. In assay [12], this molecule gave a specific killing rate of target cells, %, CART3ab10, 1:1 of 0%; a specific killing rate of target cells, %, CART3ab10, 3:1 of 0%; a specific killing rate of target cells, %, CART3ab10, 10:1 of 12.2%; a specific killing rate of target cells, %, CART3ab10, 20:1 of 21.2%. Besides, in assay [12], the specific killing rate of target cells, %, CART4a, 1:1 was 0%; the specific killing rate of target cells, %, CART4a, 3:1 was 1.2%; the specific killing rate of target cells, %, CART4a, 10:1 is 8.8%; the specific killing rate of target cells, %, CART4a, 20:1 was 19.8%.
